This is an account of results in article PMC1361355.

As usually defined, the Kd is a measure of binding affinity in units of concentration.

The target in test [1] is human ephrinB2 stably expressed on CHO-pgsA745 cells (CHO-B2) (human) (UniProt P52799). Description: flow cytometry on cells.
The target in test [2] is ephrinB2 (Homo sapiens) (UniProt P52799). To be noted: cited from earlier work.
Chain of ephrinB2 (Homo sapiens) (P52799 28-229): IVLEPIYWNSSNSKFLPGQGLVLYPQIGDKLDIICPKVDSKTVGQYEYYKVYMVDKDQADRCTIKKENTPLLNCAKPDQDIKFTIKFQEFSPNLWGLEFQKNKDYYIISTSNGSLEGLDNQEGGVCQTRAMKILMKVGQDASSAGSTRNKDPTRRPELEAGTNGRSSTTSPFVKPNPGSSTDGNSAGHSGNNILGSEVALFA

Chain of EphB4 (P54760 16-539): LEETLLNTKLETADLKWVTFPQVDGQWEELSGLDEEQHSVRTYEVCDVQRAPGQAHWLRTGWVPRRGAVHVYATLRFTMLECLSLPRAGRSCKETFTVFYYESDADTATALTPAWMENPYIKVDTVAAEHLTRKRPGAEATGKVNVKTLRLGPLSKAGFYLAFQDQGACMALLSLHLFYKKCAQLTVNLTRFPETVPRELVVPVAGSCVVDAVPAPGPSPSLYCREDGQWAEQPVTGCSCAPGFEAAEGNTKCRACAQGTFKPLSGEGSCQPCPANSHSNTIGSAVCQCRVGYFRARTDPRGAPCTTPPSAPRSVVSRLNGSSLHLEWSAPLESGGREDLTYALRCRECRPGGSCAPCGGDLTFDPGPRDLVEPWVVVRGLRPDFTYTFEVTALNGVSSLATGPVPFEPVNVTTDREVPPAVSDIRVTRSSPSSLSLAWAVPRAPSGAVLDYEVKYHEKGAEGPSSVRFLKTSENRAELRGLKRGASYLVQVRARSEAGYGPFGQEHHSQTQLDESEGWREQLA

Consider “NiV-G-Fc, a fusion construct between the ectodomain of NiV-G and the Fc region of human IgG1 (from UniProt Q9IH62 71-602) (Fc fusion)”, for which the Kd in test [1] stood at 0.06 nM.
In the case of EphB4 (from UniProt P54760), in test [2], the Kd is 0.5 nM.
